Measurements from patent US20200062804A1 (ADRX, published 2020).
Values joined by “and” are separate entries in the source; they are usually repeats but may differ in a detail not shown here. Equal entries are not always repeated. Non-standard residues stand in square brackets, D forms with d. No end group written: not given here. NMeI = CC[C@H](C)[C@H](NC)C(=O)O; hArg = N=C(N)NCCCC[C@H](N)C(=O)O

T1: Nat1 (LTIITLE) (also: TFA salt)
T1 peptide: LTIITLE

B1: rwrylrr (peptide)
peptide: [dR][dW][dR][dY][dL][dR][dR]
B2: rqmqyrr (peptide)
peptide: [dR][dQ][dM][dQ][dY][dR][dR]
B3: IRIYRYK (peptide)
peptide: IRIYRYK
B4: Ile-homoArg-Ile-homoArg-Arg-Trp-Arg (peptide)
peptide: I[hArg]I[hArg]RWR
B5: LYIFRHT (peptide)
peptide: LYIFRHT
B6: LLIKYHR (peptide)
peptide: LLIKYHR
B7: krwrhqr (peptide)
peptide: [dK][dR][dW][dR][dH][dQ][dR]
B8: LTIRTLH (peptide)
peptide: LTIRTLH
B9: LTIKLWH (peptide)
peptide: LTIKLWH
B10: wwrfhwr (peptide)
peptide: [dW][dW][dR][dF][dH][dW][dR]
B11: hwrwlrr (peptide)
peptide: [dH][dW][dR][dW][dL][dR][dR]
B12: YYIRYYK (peptide)
peptide: YYIRYYK
B13: TLIIYHR (peptide)
peptide: TLIIYHR
B14: WYIRLWH (peptide)
peptide: WYIRLWH
B15: WTIRYYH (peptide)
peptide: WTIRYYH
B16: hwrwrwr (peptide)
peptide: [dH][dW][dR][dW][dR][dW][dR]
B17: IQIYRYK (peptide)
peptide: IQIYRYK
B18: LTIRTWH (peptide)
peptide: LTIRTWH
B19: LYIRHK (peptide)
peptide: LYIRHK
B20: shwrrhr (peptide)
peptide: [dS][dH][dW][dR][dR][dH][dR]
B21: LHIEHR (peptide)
peptide: LHIEHR
B22: IRIARYR (peptide)
peptide: IRIARYR
B23: TYIRYLR (peptide)
peptide: TYIRYLR
B24: WTRIYYH (peptide)
peptide: WTRIYYH
B25: IRIRHYR (peptide)
peptide: IRIRHYR
B26: LR(N-Me)IKYHR (peptide)
peptide: LR[NMeI]KYHR
B27: LFIYYQR (peptide)
peptide: LFIYYQR
B28: LYIRTWH (peptide)
peptide: LYIRTWH
B29: WTRILWH (peptide)
peptide: WTRILWH
B30: LLIAYHR (peptide)
peptide: LLIAYHR
B31: IRIRRAA (peptide)
peptide: IRIRRAA
B32: fwawhrr (peptide)
peptide: [dF][dW][dA][dW][dH][dR][dR]
B33: WTIMLWH (peptide)
peptide: WTIMLWH
B34: yqwqyqr (peptide)
peptide: [dY][dQ][dW][dQ][dY][dQ][dR]
B35: fwrwhaa (peptide)
peptide: [dF][dW][dR][dW][dH][dA][dA]
B36: rfhyfrk (peptide)
peptide: [dR][dF][dH][dY][dF][dR][dK]
B37: WYIRTYH (peptide)
peptide: WYIRTYH
B38: LRIRHVK (peptide)
peptide: LRIRHVK
B39: swrwhhr (peptide)
peptide: [dS][dW][dR][dW][dH][dH][dR]
B40: LTIRLTH (peptide)
peptide: LTIRLTH
B41: WTKITLH (peptide)
peptide: WTKITLH
B42: LLIKAHR (peptide)
peptide: LLIKAHR
B43: kqwyhwr (peptide)
peptide: [dK][dQ][dW][dY][dH][dW][dR]
B44: farwhrr (peptide)
peptide: [dF][dA][dR][dW][dH][dR][dR]
B45: WYIRLWK (peptide)
peptide: WYIRLWK
B46: LYIRTYH (peptide)
peptide: LYIRTYH
B47: IRIRRYA (peptide)
peptide: IRIRRYA
B48: fwrwhar (peptide)
peptide: [dF][dW][dR][dW][dH][dA][dR]
B49: LTIMLWH (peptide)
peptide: LTIMLWH
B50: LLIKYAR (peptide)
peptide: LLIKYAR
B51: WTRIYLH (peptide)
peptide: WTRIYLH
B52: RLYIRLS (peptide)
peptide: RLYIRLS
B53: WYIRLTH (peptide)
peptide: WYIRLTH
B54: IRVYKYS (peptide)
peptide: IRVYKYS
B55: IYIYHQR (peptide)
peptide: IYIYHQR
B56: wwrrhhr (peptide)
peptide: [dW][dW][dR][dR][dH][dH][dR]
B57: awrwhrr (peptide)
peptide: [dA][dW][dR][dW][dH][dR][dR]
B58: IRFRRYR (peptide)
peptide: IRFRRYR
B59: LTIQLWH (peptide)
peptide: LTIQLWH
B60: WRIRRYR (peptide)
peptide: WRIRRYR
B61: IRIRAAR (peptide)
peptide: IRIRAAR
B62: LFIFYHR (peptide)
peptide: LFIFYHR
B63: rqhyhwr (peptide)
peptide: [dR][dQ][dH][dY][dH][dW][dR]
B64: ALIKYHR (peptide)
peptide: ALIKYHR
B65: LLIKYHA (peptide)
peptide: LLIKYHA
B66: fwrahrr (peptide)
peptide: [dF][dW][dR][dA][dH][dR][dR]
B67: ywqwrqs (peptide)
peptide: [dY][dW][dQ][dW][dR][dQ][dS]
B68: fwrhkhr (peptide)
peptide: [dF][dW][dR][dH][dK][dH][dR]
B69: rfyrhhr (peptide)
peptide: [dR][dF][dY][dR][dH][dH][dR]

Biological target: T1, Nat1 (LTIITLE)
Test: cell-based or functional assay

| Binder | IC50, Thiofiavin T aggregation assay |
| --- | --- |
| B1 | 49 nM |
| B2 | 236 nM |
| B3 | 60 nM |
| B4 | 49 nM |
| B5 | 363 nM |
| B6 | 248 nM and 489 nM |
| B7 | 245 nM |
| B8 | 537 nM |
| B9 | 260 nM and 232 nM |
| B10 | 472 nM |
| B11 | 43 nM |
| B12 | 494 nM |
| B13 | 357 nM |
| B14 | 288 nM |
| B15 | 473 nM and 214 nM |
| B16 | 245 nM |
| B17 | 444 nM |
| B18 | 295 nM |
| B19 | 316 nM |
| B20 | 338 nM |
| B21 | 657 nM |
| B22 | 44 nM |
| B23 | 412 nM |

| Binder | IC50, Thiofiavin T aggregation assay |
| --- | --- |
| B24 | 420 nM |
| B25 | 14 nM |
| B26 | 334 nM |
| B27 | 440 nM |
| B28 | 302 nM |
| B29 | 398 nM |
| B30 | 466 nM |
| B31 | 248 nM |
| B32 | 239 nM |
| B33 | 525 nM |
| B34 | 354 nM |
| B35 | 458 nM |
| B36 | 51 nM |
| B37 | 287 nM |
| B38 | 246 nM |
| B39 | 301 nM |
| B40 | 329 nM |
| B41 | 427 nM |
| B42 | 258 nM |
| B43 | 252 nM |
| B44 | 287 nM |
| B45 | 262 nM |
| B46 | 257 nM and 463 nM |

| Binder | IC50, Thiofiavin T aggregation assay |
| --- | --- |
| B47 | 44 nM |
| B48 | 245 nM |
| B49 | 425 nM |
| B50 | 301 nM |
| B51 | 240 nM |
| B52 | 284 nM |
| B53 | 369 nM |
| B54 | 480 nM |
| B55 | 269 nM |
| B56 | 247 nM |
| B57 | 267 nM |
| B58 | 496 nM |
| B59 | 481 nM |
| B60 | 514 nM |
| B61 | 451 nM |
| B62 | 476 nM |
| B63 | 296 nM |
| B64 | 629 nM |
| B65 | 234 nM |
| B66 | 293 nM |
| B67 | 338 nM |
| B68 | 264 nM and 161 nM |
| B69 | 244 nM |
